First the molecules themselves.
B1: SEQ ID NO: 70 (peptide)
peptide: Ac-[dR][Pen]NT[Trp(7-Me)]K(NMecPEG3a)[Pen][AEF][2Nal][Thp]EN[3Pal][Sar]K([PEG2″-PEG2″-C18OH])-NH2
modifications: disulfide 2-7 (inferred); reading uncertain; also: printed as MeCO-r-Pen(3)-N-T-7MeW-K(NMecPEG3a)-Pen(3)-AEF-2Nal-THP-E-N-3Pya-Sar-K(PEG2PEG2C18OH)-CONH2

*1 amine or outer side, *2 acyl side, *3 side chain or, on linkers, in order; H or OH if unused. Bridges are numbered along the chain shown (N, C = ends). Primed or numbered codes have the meaning given here. Side-chain parts run from the residue outwards. [ ]: non-standard residue; d: D form. The star is where a group is joined. TMAPF = 5-(4-(2-amino-2-carboxyethyl)phenoxy)-N,N,N-trimethylpentan-1-aminium, C[N+](C)(C)CCCCCOc1ccc(C[C@H](N[*:1])C(=O)[*:2])cc1; code d″ = lysine side-chain amide of a carnitine-succinyl group ((2R)-3-carboxy-N,N,N-trimethylpropan-1-aminium amide; Biotin = O=C1N[C@H]2[C@H](CS[C@H]2CCCCC(=O)*)N1; Trp(7-Me) = Cc1cccc2c(C[C@H](N)C(=O)O)c[nH]c12; γGlu = O=C(O)[C@H](CCC(=O)[*:2])N[*:1]; 2Nal = N[C@@H](Cc1ccc2ccccc2c1)C(=O)O; AEF = NCCOc1ccc(C[C@H](N)C(=O)O)cc1; 3Pal = N[C@@H](Cc1cccnc1)C(=O)O; NMecPEG3a = not defined here; Pen = CC(C)(S)[C@H](N)C(=O)O; PEG2″ = PEG2 spacer unit; PEG4′ = not defined here; Thp = NC1(C(=O)O)CCOCC1; Sar = CNCC(=O)O Some results are limits rather than exact numbers.

The first assay deals with interleukin-23 receptor (IL-23R) (UniProt Q5VWK5). Briefly: cell-based or functional assay.
The molecule “interleukin-23 (IL-23) (from UniProt Q9NPF7 20-189; P29460 23-328) (ligand)” registered an EC90, IL23R reporter assay of 10 ng/mL.

The next assay deals with T1, interleukin-23 receptor (IL-23R) (UniProt Q5VWK5 24-629, limits assumed).
T1 sequence (looked up): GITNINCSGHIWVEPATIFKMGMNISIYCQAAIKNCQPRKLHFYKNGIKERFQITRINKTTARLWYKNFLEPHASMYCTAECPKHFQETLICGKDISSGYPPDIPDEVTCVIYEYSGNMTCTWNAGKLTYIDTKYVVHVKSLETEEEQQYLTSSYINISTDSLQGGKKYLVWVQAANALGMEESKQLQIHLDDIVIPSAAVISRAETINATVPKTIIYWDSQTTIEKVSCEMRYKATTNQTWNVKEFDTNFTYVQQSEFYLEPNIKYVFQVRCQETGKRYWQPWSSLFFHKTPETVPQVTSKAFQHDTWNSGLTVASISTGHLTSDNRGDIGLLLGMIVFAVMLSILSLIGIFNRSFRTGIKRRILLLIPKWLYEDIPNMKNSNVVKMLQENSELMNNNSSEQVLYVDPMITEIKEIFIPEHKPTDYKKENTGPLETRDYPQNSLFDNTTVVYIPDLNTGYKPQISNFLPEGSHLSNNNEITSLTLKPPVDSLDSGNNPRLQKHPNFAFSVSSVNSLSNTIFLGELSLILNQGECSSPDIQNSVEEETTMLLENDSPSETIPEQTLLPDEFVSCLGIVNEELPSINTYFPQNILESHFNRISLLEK
The experiment in a line: cell-based or functional assay.
As to Ac-[dR][Pen]NT[Trp(7-Me)]K(Ac)[Pen][AEF][2Nal][Thp]K([PEG4′-Biotin])N[3Pal][Sar]K([PEG2″-PEG2″-γGlu-C18OH])-NH2 (disulfide 2-7) [SEQ ID NO: 56], the “IC50, IL23R reporter assay” value is less than 0.05 µM. On the same count and under the same terms, under Ac-K([PEG2″-PEG2″-γGlu-C18OH])[Pen]NT[Trp(7-Me)]K(Ac)[Pen][TMAPF][2Nal][Thp]K(Ac)N[3Pal][Sar]-NH2 (disulfide 2-7 (inferred)) [SEQ ID NO: 62] stands less than 0.05 µM; under {HOC18-γGlu-PEG2″-PEG2″}-[dR][Pen]NT[Trp(7-Me)]K(Ac)[Pen][AEF][2Nal][Thp]EN[3Pal][Sar]-NH2 (disulfide 2-7) [SEQ ID NO: 60], less than 0.05 µM. Same read-out and setting: to {Biotin-PEG4′}-[dR][Pen]NT[Trp(7-Me)]K(Ac)[Pen][AEF][2Nal][Thp]EN[3Pal][Sar]K([PEG2″-PEG2″-γGlu-C18OH])-NH2 (disulfide 2-7) [SEQ ID NO: 57] belongs less than 0.05 µM; to XNTXXXXXXENXX (HOC18gEPEG2PEG2CO-Pen(3)-N-T-7MeW-K(Ac)-Pen(3)-AEF-2Nal-THP-E-N-3Pya-Sar-CONH2) [SEQ ID NO: 61], less than 0.05 µM. Still for that read-out and setting: to B1 belongs less than 0.05 µM; to Ac-[dR][Pen]NT[Trp(7-Me)]K(Ac)[Pen][AEF][2Nal][Thp]K(code d″)N[3Pal][Sar]K([PEG2″-PEG2″-γGlu-C18OH])-NH2 (disulfide 2-7 (inferred)) [SEQ ID NO: 51], not below 0.5 µM.

The target in another assay is T1, interleukin-23 receptor (IL-23R). Briefly: cell-based or functional assay. This is another data set of the same source.
With Ac-[dR][Pen]NT[Trp(7-Me)]K(Ac)[Pen][AEF][2Nal][Thp]K([PEG4′-Biotin])N[3Pal][Sar]K([PEG2″-PEG2″-γGlu-C18OH])-NH2 (disulfide 2-7) [SEQ ID NO: 56], the “PBMC pSTAT3 IC50” value is less than 0.5 nM. As to Ac-K([PEG2″-PEG2″-γGlu-C18OH])[Pen]NT[Trp(7-Me)]K(Ac)[Pen][TMAPF][2Nal][Thp]K(Ac)N[3Pal][Sar]-NH2 (disulfide 2-7 (inferred)) [SEQ ID NO: 62], the “PBMC pSTAT3 IC50” value was less than 0.5 nM. Same read-out and setting: under {HOC18-γGlu-PEG2″-PEG2″}-[dR][Pen]NT[Trp(7-Me)]K(Ac)[Pen][AEF][2Nal][Thp]EN[3Pal][Sar]-NH2 (disulfide 2-7) [SEQ ID NO: 60] stands less than 0.5 nM; under {Biotin-PEG4′}-[dR][Pen]NT[Trp(7-Me)]K(Ac)[Pen][AEF][2Nal][Thp]EN[3Pal][Sar]K([PEG2″-PEG2″-γGlu-C18OH])-NH2 (disulfide 2-7) [SEQ ID NO: 57], less than 0.5 nM. On the same count and under the same terms, under XNTXXXXXXENXX (HOC18gEPEG2PEG2CO-Pen(3)-N-T-7MeW-K(Ac)-Pen(3)-AEF-2Nal-THP-E-N-3Pya-Sar-CONH2) [SEQ ID NO: 61] stands less than 0.5 nM; under B1, less than 0.5 nM; under Ac-[dR][Pen]NT[Trp(7-Me)]K(Ac)[Pen][AEF][2Nal][Thp]K(code d″)N[3Pal][Sar]K([PEG2″-PEG2″-γGlu-C18OH])-NH2 (disulfide 2-7 (inferred)) [SEQ ID NO: 51], less than 0.5 nM.

The record behind these values is US20260250320A1, “LIPIDATED PEPTIDE INHIBITORS OF INTERLEUKIN-23 RECEPTOR” (Janssen Pharmaceutica NV, priority 2023, published 2026).
